In patent US20250163127A1 (published 2025):

B1: PD-L1 303-ICOSL 2264-Fc (Fc fusion)
chain: FTVTVPKDLYVVEYGSNMTIECKFPVEKQLDLAALIVYWEMEGKDIIQFVHGEEDQKAQHSSYRQRARLLKDQLSLGNAALQITDVKLQDAGVYRCMISYGGGADYKRITVKVNAGSGGSGGGGSGGGGSDTQEKEVRAMVGSDVELSCACPEGSRFDLNDVYVYWQTSESKTVVTYHIPQHSSLEYVDSRYRNRALMSPAGMLRGDFSLRLFNVTPQDEQKFHCLVLSRSLGFQEVLSVEVTLHVAANFSVGGGGSGSGGGGSEPKSSDKTHTCPPCPAPEAEGAPSVFLFPPKPKDTLMISRTPEVTCVVVDVSHEDPEVKFNWYVDGVEVHNAKTKPREEQYNSTYRVVSVLTVLHQDWLNGKEYKCKVSNKALPAPIEKTISKAKGQPREPQVYTLPPSRDELTKNQVSLTCLVKGFYPSDIAVEWESNGQPENNYKTTPPVLDSDGSFFLYSKLTVDKSRWQQGNVFSCSVMHEALHNHYTQKSLSLSPG
B2: PD-L1 303-ICOSL 2264 (SEQ ID NO 3496) (other)
chain: FTVTVPKDLYVVEYGSNMTIECKFPVEKQLDLAALIVYWEMEGKDIIQFVHGEEDQKAQHSSYRQRARLLKDQLSLGNAALQITDVKLQDAGVYRCMISYGGGADYKRITVKVNAGSGGSGGGGSGGGGSDTQEKEVRAMVGSDVELSCACPEGSRFDLNDVYVYWQTSESKTVVTYHIPQHSSLEYVDSRYRNRALMSPAGMLRGDFSLRLFNVTPQDEQKFHCLVLSRSLGFQEVLSVEVTLHVAANFSVDYKDDDDKHHHHHH
B3: PD-L1 303-PD-L1 303-ICOSL 2264-ICOSL 2264 (other)
chain: FTVTVPKDLYVVEYGSNMTIECKFPVEKQLDLAALIVYWEMEGKDIIQFVHGEEDQKAQHSSYRQRARLLKDQLSLGNAALQITDVKLQDAGVYRCMISYGGGADYKRITVKVNAGGGGSGGGGSGGGGSFTVTVPKDLYVVEYGSNMTIECKFPVEKQLDLAALIVYWEMEGKDIIQFVHGEEDQKAQHSSYRQRARLLKDQLSLGNAALQITDVKLQDAGVYRCMISYGGGADYKRITVKVNAGGGGSGGGGSGGGGSDTQEKEVRAMVGSDVELSCACPEGSRFDLNDVYVYWQTSESKTVVTYHIPQHSSLEYVDSRYRNRALMSPAGMLRGDFSLRLFNVTPQDEQKFHCLVLSRSLGFQEVLSVEVTLHVAANFSVGSGGSGGGGSGGGGSDTQEKEVRAMVGSDVELSCACPEGSRFDLNDVYVYWQTSESKTVVTYHIPQHSSLEYVDSRYRNRALMSPAGMLRGDFSLRLFNVTPQDEQKFHCLVLSRSLGFQEVLSVEVTLHVAANFSVDYKDDDDKHHHHHH
B4: PD-L1 303-ICOSL 2264-COMP (other)
chain: FTVTVPKDLYVVEYGSNMTIECKFPVEKQLDLAALIVYWEMEGKDIIQFVHGEEDQKAQHSSYRQRARLLKDQLSLGNAALQITDVKLQDAGVYRCMISYGGGADYKRITVKVNAGGGGSGGGGSGGGGSDTQEKEVRAMVGSDVELSCACPEGSRFDLNDVYVYWQTSESKTVVTYHIPQHSSLEYVDSRYRNRALMSPAGMLRGDFSLRLFNVTPQDEQKFHCLVLSRSLGFQEVLSVEVTLHVAANFSVGGGGSGGGGSGGGGSDLGPQMLRELQETNAALQDVRELLRQQVREITFLKNTVMECDACGDYKDDDDKHHHHHH
B5: PD-L1 303-ICOSL 2264-ICOSL 2264-PD-L1 303 (other)
chain: FTVTVPKDLYVVEYGSNMTIECKFPVEKQLDLAALIVYWEMEGKDIIQFVHGEEDQKAQHSSYRQRARLLKDQLSLGNAALQITDVKLQDAGVYRCMISYGGGADYKRITVKVNAGGGGSGGGGSGGGGSDTQEKEVRAMVGSDVELSCACPEGSRFDLNDVYVYWQTSESKTVVTYHIPQHSSLEYVDSRYRNRALMSPAGMLRGDFSLRLFNVTPQDEQKFHCLVLSRSLGFQEVLSVEVTLHVAANFSVGGGGSGGGGSGGGGSDTQEKEVRAMVGSDVELSCACPEGSRFDLNDVYVYWQTSESKTVVTYHIPQHSSLEYVDSRYRNRALMSPAGMLRGDFSLRLFNVTPQDEQKFHCLVLSRSLGFQEVLSVEVTLHVAANFSVGSGGSGGGGSGGGGSFTVTVPKDLYVVEYGSNMTIECKFPVEKQLDLAALIVYWEMEGKDIIQFVHGEEDQKAQHSSYRQRARLLKDQLSLGNAALQITDVKLQDAGVYRCMISYGGGADYKRITVKVNADYKDDDDKHHHHHH
B6: PD-L1 303-ICOSL 2264-PD-L1 303 (other)
chain: FTVTVPKDLYVVEYGSNMTIECKFPVEKQLDLAALIVYWEMEGKDIIQFVHGEEDQKAQHSSYRQRARLLKDQLSLGNAALQITDVKLQDAGVYRCMISYGGGADYKRITVKVNAGGGGSGGGGSGGGGSDTQEKEVRAMVGSDVELSCACPEGSRFDLNDVYVYWQTSESKTVVTYHIPQHSSLEYVDSRYRNRALMSPAGMLRGDFSLRLFNVTPQDEQKFHCLVLSRSLGFQEVLSVEVTLHVAANFSVGGGGSGGGGSGGGGSFTVTVPKDLYVVEYGSNMTIECKFPVEKQLDLAALIVYWEMEGKDIIQFVHGEEDQKAQHSSYRQRARLLKDQLSLGNAALQITDVKLQDAGVYRCMISYGGGADYKRITVKVNADYKDDDDKHHHHHH
B7: PD-L1 303-ICOSL 2264-Fc + Fc (Fc fusion)
chain 1: FTVTVPKDLYVVEYGSNMTIECKFPVEKQLDLAALIVYWEMEGKDIIQFVHGEEDQKAQHSSYRQRARLLKDQLSLGNAALQITDVKLQDAGVYRCMISYGGGADYKRITVKVNAGSGGGSGGGGSGGGGSDTQEKEVRAMVGSDVELSCACPEGSRFDLNDVYVYWQTSESKTVVTYHIPQHSSLEYVDSRYRNRALMSPAGMLRGDFSLRLFNVTPQDEQKFHCLVLSRSLGFQEVLSVEVTLHVAANFSVGGGGSGSGGGGSEPKSSDKTHTCPPCPAPEAEGAPSVFLFPPKPKDTLMISRTPEVTCVVVDVSHEDPEVKFNWYVDGVEVHNAKTKPREEQYNSTYRVVSVLTVLHQDWLNGKEYKCKVSNKALPAPIEKTISKAKGQPREPQVYTLPPCREEMTKNQVSLWCLVKGFYPSDIAVEWESNGQPENNYKTTPPVLDSDGSFFLYSKLTVDKSRWQQGNVFSCSVMHEALHNHYTQKSLSLSPGK
chain 2: HMSSVSAQAAAEPKSSDKTHTCPPCPAPEAEGAPSVFLFPPKPKDTLMISRTPEVTCVVVDVSHEDPEVKFNWYVDGVEVHNAKTKPREEQYNSTYRVVSVLTVLHQDWLNGKEYKCKVSNKALPAPIEKTISKAKGQPREPQVCTLPPSREEMTKNQVSLSCAVKGFYPSDIAVEWESNGQPENNYKTTPPVLDSDGSFFLYSKLTVDKSRWQQGNVFSCSVMHEALHNHYTQKSLSLSPGK
B8: CD58 3650-CD58 3650-PD-L1 303-PD-L1 303 (other)
chain: SQQIYGVVYGNVTFHVPSNVPLKEVLWKKQKDKVAELENSEFRAFSSFKNRVYLDTVSGSLTIYNLTSSDEDEYEMESPNITDTMKFFLYVLESGGGGSGGGGSGGGGSSQQIYGVVYGNVTFHVPSNVPLKEVLWKKQKDKVAELENSEFRAFSSFKNRVYLDTVSGSLTIYNLTSSDEDEYEMESPNITDTMKFFLYVLESGGGGSGGGGSGGGGSFTVTVPKDLYVVEYGSNMTIECKFPVEKQLDLAALIVYWEMEGKDIIQFVHGEEDQKAQHSSYRQRARLLKDQLSLGNAALQITDVKLQDAGVYRCMISYGGGADYKRITVKVNAGSGGSGGGGSGGGGSFTVTVPKDLYVVEYGSNMTIECKFPVEKQLDLAALIVYWEMEGKDIIQFVHGEEDQKAQHSSYRQRARLLKDQLSLGNAALQITDVKLQDAGVYRCMISYGGGADYKRITVKVNAGSGGGGSDYKDDDDKHHHHHH
B9: CD58 3650-PD-L1 303-PD-L1 303-CD58 3650 (other)
chain: SQQIYGVVYGNVTFHVPSNVPLKEVLWKKQKDKVAELENSEFRAFSSFKNRVYLDTVSGSLTIYNLTSSDEDEYEMESPNITDTMKFFLYVLESGGGGSGGGGSGGGGSFTVTVPKDLYVVEYGSNMTIECKFPVEKQLDLAALIVYWEMEGKDIIQFVHGEEDQKAQHSSYRQRARLLKDQLSLGNAALQITDVKLQDAGVYRCMISYGGGADYKRITVKVNAGGGGSGGGGSGGGGSFTVTVPKDLYVVEYGSNMTIECKFPVEKQLDLAALIVYWEMEGKDIIQFVHGEEDQKAQHSSYRQRARLLKDQLSLGNAALQITDVKLQDAGVYRCMISYGGGADYKRITVKVNAGSGGSGGGGSGGGGSSQQIYGVVYGNVTFHVPSNVPLKEVLWKKQKDKVAELENSEFRAFSSFKNRVYLDTVSGSLTIYNLTSSDEDEYEMESPNITDTMKFFLYVLESGSGGGGSDYKDDDDKHHHHHH
B10: PD-L1 303-CD58 3650-Fc (Fc fusion)
chain: FTVTVPKDLYVVEYGSNMTIECKFPVEKQLDLAALIVYWEMEGKDIIQFVHGEEDQKAQHSSYRQRARLLKDQLSLGNAALQITDVKLQDAGVYRCMISYGGGADYKRITVKVNAGGGGSGGGGSGGGGSSQQIYGVVYGNVTFHVPSNVPLKEVLWKKQKDKVAELENSEFRAFSSFKNRVYLDTVSGSLTIYNLTSSDEDEYEMESPNITDTMKFFLYVLESGSGGGGSEPKSSDKTHTCPPCPAPEAEGAPSVFLFPPKPKDTLMISRTPEVTCVVVDVSHEDPEVKFNWYVDGVEVHNAKTKPREEQYNSTYRVVSVLTVLHQDWLNGKEYKCKVSNKALPAPIEKTISKAKGQPREPQVYTLPPSRDELTKNQVSLTCLVKGFYPSDIAVEWESNGQPENNYKTTPPVLDSDGSFFLYSKLTVDKSRWQQGNVFSCSVMHEALHNHYTQKSLSLSPG
B11: PD-L1 303-PD-L1 303-CD58 3650-CD58 3650 (other)
chain: FTVTVPKDLYVVEYGSNMTIECKFPVEKQLDLAALIVYWEMEGKDIIQFVHGEEDQKAQHSSYRQRARLLKDQLSLGNAALQITDVKLQDAGVYRCMISYGGGADYKRITVKVNAGGGGSGGGGSGGGGSFTVTVPKDLYVVEYGSNMTIECKFPVEKQLDLAALIVYWEMEGKDIIQFVHGEEDQKAQHSSYRQRARLLKDQLSLGNAALQITDVKLQDAGVYRCMISYGGGADYKRITVKVNAGGGGSGGGGSGGGGSSQQIYGVVYGNVTFHVPSNVPLKEVLWKKQKDKVAELENSEFRAFSSFKNRVYLDTVSGSLTIYNLTSSDEDEYEMESPNITDTMKFFLYVLESGSGGSGGGGSGGGGSSQQIYGVVYGNVTFHVPSNVPLKEVLWKKQKDKVAELENSEFRAFSSFKNRVYLDTVSGSLTIYNLTSSDEDEYEMESPNITDTMKFFLYVLESGSGGGGSDYKDDDDKHHHHHH

Target: CD28 (human, UniProt P10747)
Assay: cell-based or functional assay

% CD25 Hi FoxP3 + [% at 100 nM] | Binder
6.6 | B1
21.7 | B2
4.28 | B3
21 | B4
0.89 | B5
23.2 | B6
29.8 | B7

Target: PD-1 (human, UniProt Q15116)
Assay: cell-based or functional assay

% CD25 Hi FoxP3 + [% at 100 nM] | Binder
6.6 | B1
21.7 | B2
4.28 | B3
21 | B4
0.89 | B5
23.2 | B6
29.8 | B7

Target: CD2 (Homo sapiens (Human), UniProt P06729)
Assay: flow cytometry, CHO-CD2 cells

EC50 [nM] | Binder
24.4 | B8
14.4 | B9
0.661 | B10
13.7 | B11

Target: human PD-1 (human, UniProt Q15116)
Assay: flow cytometry, Jurkat/IL-2/PD-1 cells

EC50 [nM] | Binder
19.5 | B8
6.6 | B9
1.2 | B10
2 | B11
